This passage reports Ka and IC50 results from patent US20250340661A1, “ANTI CD40 ANTIBODY, ANTIGEN BINDING FRAGMENT AND MEDICAL USE THEREOF” (Jiangsu Hengrui Pharmaceuticals Co., Ltd., priority 2021, published 2025).

The term IC50 denotes the concentration that gives 50% inhibition.

Test [1] deals with T1, CD40 (Homo sapiens, UniProt P25942). Put plainly: SPR (Biacore) affinity for human CD40. The class given is binding. Also on record: h-CD40-his; Glu21-Arg193; P25942-1; His; purchased Acrobiosystems Inc. CD0-H5228. The settings on record: Human CD40 as mobile phase, antibody captured. As for the experimental part: The test antibody was affinity-captured on an anti-human Fc chip, and a series of concentrations of His-tagged human or cynomolgus monkey CD40 antigen were allowed to flow over the chip surface. Reaction signals were detected in real time using a Biacore instrument, and thus binding and dissociation curves were obtained. The buffer used in the experiment was HBS-EP+10× buffer solution (Cat. #BR-1006-69, GE) diluted to 1× (pH 7.4) with D. I. Water. Fitting was performed on the data obtained from the experiment using a (1:1) Binding model to obtain affinity values. 9E6-L4H2 and 2F12-L4H2 have similar binding constants for human CD40 to CFZ533, 9E6-L4H2 has a stronger binding affinity for cynomolgus monkey CD40, and 2F12-L4H2 has a slightly weak binding affinity for cynomolgus monkey CD40.
Target sequence in this assay (P25942 21-193): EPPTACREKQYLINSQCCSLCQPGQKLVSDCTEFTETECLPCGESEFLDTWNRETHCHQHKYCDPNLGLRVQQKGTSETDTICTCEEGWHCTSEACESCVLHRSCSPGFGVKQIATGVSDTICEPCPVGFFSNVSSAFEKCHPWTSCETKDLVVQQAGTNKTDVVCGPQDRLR

Test [2] concerns the target T1, CD40. Put plainly: HEK-Blue CD40L reporter gene cell activity of human-rabbit chimeric anti-CD40 antibodies. The class given is cell-based. More on the design: host or cells: HEK-Blue CD40L cells. Conditions: HEK-Blue CD40L cells, 25 ng/mL CD40L + anti-His antibody. As for the experimental part:
HEK-Blue CD40L cells were purchased from Invivogen (Cat. #hkb-cd40). The cells were stably transfected with the human CD40 gene and the NF-kB-mediated SEAP genome. The activation level of the CD40 signaling pathway can be characterized by detecting the secreted SEAP in the supernatant using QUANTI-Blue, the substrate of SEAP. In this experiment, the in vitro antagonist activity of anti-CD40 antibodies was assessed according to IC50 by detecting the activation of HEK-Blue CD40L cells by CD40L. HEK-Blue CD40L cells were cultured in a DMEM medium containing 10% FBS, 100 μg/mL Zeocin and 30 μg/mL Blasticidin and passaged 2-3 times in a week at a ratio of 1:5 or 1:10. During passaging, the medium was pipetted off, and the cell layer was rinsed with 5 mL of 0.25% pancreatin. Then the pancreatin was pipetted off, the cells were digested in an incubator for 3-5 min, and then a fresh medium was added to resuspend cells. 100 μL of cell suspension was added to a 96-well cell culture plate at a density of […]. The medium was DMEM containing 10% FBS, 100 μg/mL Zeocin and 30 μg/mL Blasticidin. Only 100 μL of sterile water was added to the periphery of the 96-well plate. […] The absorbance at 630 nm was measured with a microplate reader (Thermo MultiSkanFc), and IC50 values were calculated and used to assess the in vitro cell activity of the anti-CD40 antibodies.
Target sequence in this assay (P25942 21-277): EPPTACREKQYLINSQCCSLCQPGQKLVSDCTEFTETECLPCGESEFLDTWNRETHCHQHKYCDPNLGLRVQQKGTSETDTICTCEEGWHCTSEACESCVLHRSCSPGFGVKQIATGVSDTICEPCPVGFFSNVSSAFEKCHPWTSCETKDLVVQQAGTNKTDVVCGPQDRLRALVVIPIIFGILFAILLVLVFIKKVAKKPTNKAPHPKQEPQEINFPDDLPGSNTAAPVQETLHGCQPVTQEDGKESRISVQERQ
For orientation: Reporter assays use an easily measured gene product as a stand-in for the process of interest.

In test [1], “CFZ533: anti-CD40 antagonistic antibody (iscalimab), positive control; variable regions from U.S. Pat. No. 8,277,810B [reference compound]” came in with a Ka of 688000 M⁻¹ s⁻¹. The IC50 in test [2] is 0.272 nM.
